Measured values reported in patent US8349320.

What was measured:
[1] = target: human HVEM (wild type) expressed on cells (human) (UniProt Q92956); test: flow cytometry saturation binding on 293T cells transfected with wild type HVEM
[2] = target: human HVEM mutant Y47F expressed on cells (human) (UniProt Q92956); test: flow cytometry saturation binding on 293T cells transfected with mutant HVEM
[3] = target: human HVEM mutant E65A expressed on cells (human) (UniProt Q92956); test: as above
[4] = target: human HVEM mutant R113A expressed on cells (human) (UniProt Q92956); test: as above
Sequence of human HVEM mutant R113A expressed on cells (human) (Q92956 39-283 R113A): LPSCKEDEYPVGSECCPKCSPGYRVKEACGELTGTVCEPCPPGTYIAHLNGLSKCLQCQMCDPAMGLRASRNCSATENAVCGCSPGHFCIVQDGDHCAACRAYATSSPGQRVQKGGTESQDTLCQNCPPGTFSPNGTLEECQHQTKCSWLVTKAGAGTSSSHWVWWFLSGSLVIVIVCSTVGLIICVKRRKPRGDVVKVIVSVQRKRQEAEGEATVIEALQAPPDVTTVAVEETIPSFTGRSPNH

[5] = target: human HVEM mutant S58A expressed on cells (human) (UniProt Q92956); test: as above
Sequence of human HVEM mutant S58A expressed on cells (human) (Q92956 39-283 S58A): as the sequence (Q92956 39-283 R113A) above, with S20A, A75R counted along it

[6] = target: human HVEM mutant Y61F expressed on cells (human) (UniProt Q92956); test: as above
Sequence of human HVEM mutant Y61F expressed on cells (human) (Q92956 39-283 Y61F): as the sequence (Q92956 39-283 R113A) above, with Y23F, A75R counted along it

[7] = target: human HVEM mutant K64A expressed on cells (human) (UniProt Q92956); test: as above
Sequence of human HVEM mutant K64A expressed on cells (human) (Q92956 39-283 K64A): as the sequence (Q92956 39-283 R113A) above, with K26A, A75R counted along it

[8] = target: human HVEM mutant R62A expressed on cells (human) (UniProt Q92956); test: as above
Sequence of human HVEM mutant R62A expressed on cells (human) (Q92956 39-283 R62A): as the sequence (Q92956 39-283 R113A) above, with R24A, A75R counted along it

[9] = target: human HVEM mutant E76A expressed on cells (human) (UniProt Q92956); test: as above
Sequence of human HVEM mutant E76A expressed on cells (human) (Q92956 39-283 E76A): as the sequence (Q92956 39-283 R113A) above, with E38A, A75R counted along it

Sequence of human HVEM (wild type) expressed on cells (human) (Q92956 39-283): as the sequence (Q92956 39-283 R113A) above, with A75R counted along it
Sequence of human HVEM mutant Y47F expressed on cells (human) (Q92956 39-283 Y47F): as the sequence (Q92956 39-283 R113A) above, with Y9F, A75R counted along it
Sequence of human HVEM mutant E65A expressed on cells (human) (Q92956 39-283 E65A): as the sequence (Q92956 39-283 R113A) above, with E27A, A75R counted along it

B1: recombinant soluble human LIGHT truncated at G66 (ligand, from a related filing)
chain: GEMVTRLPDGPAGSWEQLIQERRSHEVNPAAHLTGANSSLTGSGGPLLWETQLGLAFLRGLSYHDGALVVTKAGYYYIYSKVQLGGVGCPLGLASTITHGLYKRTPRYPEELELLVSQQSPCGRATSSSRVWWDSSFLGGVVHLEAGEEVVVRVLDERLVRLRDGTRSYFGAFMV
- Kd [1]: 13 nM
- Kd [2]: 14 nM
- Kd [3]: 18 nM
- Kd [4]: 18 nM
- Kd [5]: 19 nM
- Kd [6]: 17 nM
- Kd [7]: 14 nM
- Kd [8]: 17 nM
- Kd [9]: 22 nM
